For the test, the target named is trastuzumab (human). Nature of the test: charge-stabilized self-interaction nanoparticle spectroscopy.

On to trastuzumab (antibody), for which the CS-SINS score came out at 0.1.

(Values after article PMC11757908.)
